# According to paper PMC8657803, “Structural Insight into the Binding of TGIF1 to SIN3A PAH2 Domain through a C-Terminal Amphipathic Helix” (International Journal of Molecular Sciences, 2021):
# B1: SIN3A PAH2 (residues S295–N384), recombinant (domain or fragment, human, UniProt Q96ST3 295-384, looked up)
# chain: SLQNNQPVEFNHAINYVNKIKNRFQGQPDIYKAFLEILHTYQKEQRNAKEAGGNYTPALTEQEVYAQVARLFKNQEDLLSEFGQFLPDAN
# notes: SIN3A, human, paired amphipathic helix domain 2 (PAH2), residues S295-N384; Non-labelled
# Biological target: T1, TGIF1_(256–401), recombinant truncation covering RD2 (human, UniProt Q15583-1 256-401)
# T1 construct: two additional residues left at the N-terminus after thrombin removal of the purification tag; 15N-labelled in the NMR titration; also called TGIF1 RD2 truncation; TGIF1 M256–A401
# T1 sequence (Q15583 other isoform, or with tags, fused parts or gaps): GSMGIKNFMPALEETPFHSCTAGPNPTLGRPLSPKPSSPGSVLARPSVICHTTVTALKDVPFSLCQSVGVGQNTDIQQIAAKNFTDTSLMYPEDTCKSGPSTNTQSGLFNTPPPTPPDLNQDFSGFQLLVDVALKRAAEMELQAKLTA
# Assay: NMR titration; 0.1 mM 15N-labelled TGIF1 truncation mixed with non-labelled SIN3A PAH2 at molar ratios 1:0 to 1:2; 1H-15N HSQC; 20 mM HEPES, 80 mM NaCl, 2 mM DTT, 0.05% NaN3, pH 6.4, 90% H2O/10% D2O; 293 K (25 °C) as printed
# Conditions: both partners purified
binder,measurement,value
B1,binding result,binds
